According to patent US20030032777A1, “Precursor polypeptide of phytosulfokine derived from Arabidopsis thaliana and a gene encoding said polypeptide” (priority 2001, published 2003):
Square brackets hold non-standard residues; d marks the D form. Ends that are not written are not given here. sY = N[C@@H](Cc1ccc(OS(=O)(=O)O)cc1)C(=O)O

B1: AtPSK2 gene: gene of 545 bases (SEQ ID NO: 2) encoding 87-amino-acid phytosulfokine precursor of Arabidopsis thaliana (nucleic acid, listed as Arabidopsis thaliana)
DNA: TTTAAGCATCTCTCTCCCTTCAAAGAAAATATCACAAAAATGGCAAACGTCTCCGCTTTGCTCACCATAGCTCTTCTCCTTTGCTCCACGCTAATGTGCACTGCCCGCCCCGAACCGGCCATCTCCATCTCTATCACGACTGCTGCCGATCCATGTAACATGGAGAAGAAGATAGAAGGAAAATTAGATGACATGCATATGGTAGACGAAAACTGTGGTGCAGACGACGAAGATTGCTTAATGAGGAGGACTTTGGTCGCTCATACTGATTACATCTATACCCAGAAGAAGAAGCATCCTTGATTTTCACTTACTCATTTCTAACAAACTTTTGCTCAAGATTATGTAATTTATGTCATCCTTAATTAGTATTTGTCACATACAAGATCAAGATAGTTATGATTGTGATTATTTATATGTATTTTGGATGATATATTGTAGAACTAGAAGTTTGACAATAAAAAGTTTATAGTGTCGTTGTATGTTTAAGAAGTTTGACAATAAAAACTTTATAGTGTTGTTGCAAAAAAAAAAAAAAAAAAAAA
B2: AtPSKL gene: gene of 479 bases (SEQ ID NO: 4) encoding 79-amino-acid phytosulfokine precursor of Arabidopsis thaliana (nucleic acid, listed as Arabidopsis thaliana)
DNA: CTTCTCAGGCTCCCATTATCTTTCTCTATTTTGCAAATCAGTATGGGTAAGTTCACAACCATTTTCATCATGGCTCTCCTTCTTTGCTCTACGCTAACCTACGCAGCAAGGCTGACTCCGACGACAACCACCGCTTTGTCCAGAGAAAACTCCGTCAAGGAAATTGAAGGAGACAAGGTTGAAGAAGAAAGCTGCAACGGAATTGGAGAAGAAGAATGTTTGATAAGACGAAGCCTTCTTCTTCACACCGATTACATTTATACTCAGAATCACAAGCCCTAAGTTTCTGTATTAGAGCAATTAATTAACTAATTACATTATCAAACCTATCACTGTAGTACTTTCTGTTTTCTGTTCGTCTTTTTTGTTTTGTTTTGTTTATGTTATCGCTATTTTAAAGTTTCATTGTTATTTTGAAAGTTCTTACACCATCATTATTGATAGTCTCTTAAAACAAAAAAAAAAAAAAAAAAAAAAAA

What was measured:
[1] = test system: Arabidopsis cultured cells; assay: Rate of cell division / proliferation of transgenic cells; assay type: cell-based, Arabidopsis thaliana; settings: for Cell proliferation of transformed Arabidopsis cultured cells: cells transformed by the gene
Procedure: Constructs were transformed into Agrobacterium tumefaciens (C58C1Rif^R) by triparental mating (Van Haute et al., 1983), and Agrobacterium-mediated transformation of roots of Arabidopsis Columbia ecotype was essentially as described (Valvekens et al., 1988). Transgenic microcalli were generated by incubating co-cultivated root explants for 3 weeks on the callus induction medium (B5+0.5 mg/l 2,4-D and 0.05 mg/l KIN) supplemented with 50 mg/l Kan sulphate (Life Technologies, Grand Island, N.Y., USA) and 750 mg/l vancomycin hydrochloride (Wako, Osaka, Japan). The individual regenerating microcalli were transferred to fresh medium to ensure that all transformants were due to independent T-DNA insertions. To detect the introduced genes, genomic DNA was isolated from transgenic calli, digested with BamHI, and allowed to hybridize with the labeled cDNA as described above. Arabidopsis cells transformed with the binary vector alone served as controls.
To examine whether AtPSK2 and AtPSKL indeed code for precursors to PSK, we transformed 28-day-old Arabidopsis roots with artificially mutated AtPSK2 or AtPSKL cDNAs in the sense orientation designed to produce [Ser^4]PSK-α instead of PSK-α, and the wild-type cDNAs in sense and antisense orientations, respectively. The chimeric genes were placed under the control of the constitutive cauliflower mosaic virus (CaMV) 35S promoter incorporated within the binary vector pMAT037 (Matsuoka and Nakamura, 1991). Arabidopsis cells transformed with the binary vector alone served as controls. B5 medium (Gamborg et al., 1968) supplemented with 0.5 mg/L 2,4-dichlorophenoxyacetic acid (2,4-D) and 0.05 mg/L kinetin (KIN) was used to induce calli.
The rate of cell division was investigated on the transgenic cells. The results on AtPSK2 and AtPSKL are shown in FIGS. 12 and 13, respectively. In FIGS. 12 and 13, A indicates the result of the sense transgenic cells, B indicates the result of the control cells, C indicates the result of the antisense transgenic cells, respectively. […]

[2] = test system: plant cell; settings: relative to PSK-α; cited from earlier work
[3] = test system: Arabidopsis cells; assay: LC/MS quantification of PSK analogs secreted into conditioned medium (CM) by transgenic cells; assay type: cell-based, Arabidopsis thaliana; settings: cells transformed by the gene
Description: A 22-mer primer (5′-[…]-3′) based on the nucleic acid sequence of the AtPSK2 cDNA and A 24-mer primer (5′-[…]-3′) based on the nucleic acid sequence of the AtPSKL cDNA were synthesized and used to obtain the mutated cDNAs that were designed to produce unnatural [Ser^4]PSK-α instead of PSK-α. Mutations were introduced with a LA PCR In Vitro Mutagenesis Kit (Takara) and confirmed by sequencing. The pMAT037 (Matsuoka and Nakamura, 1991) was employed as a binary vector for Arabidopsis root transformation. Original or mutated cDNAs were digested with SacI and HindIII or KpnI and inserted in-frame into the same sites of the vectors to construct chimeric genes harboring the cDNA in sense or antisense orientations, respectively. Expression of the chimeric genes was driven by the promoter of the CaMV 35S transcript.
Constructs were transformed into Agrobacterium tumefaciens (C58C1Rif^R) by triparental mating (Van Haute et al., 1983), and Agrobacterium-mediated transformation of roots of Arabidopsis Columbia ecotype was essentially as described (Valvekens et al., 1988). […]
Mass spectra were obtained using a Fisons VG platform quadruple mass spectrometer with electrospray ionization interfaced to a Jasco PU 980 HPLC system. […] The semiquantitative amounts of the PSK-α, PSK-β, [Ser^4]PSK-α and [Ser^4]PSK-β in CM were measured based on the peak heights without an internal standard. […]

| Molecule | Effect of supplementation in the medium on decreased mitogenic activity of antisense transgenic cells ([1]; PSK-α added to medium of antisense transgenic cells) | Cell proliferation activity compared to that of PSK-α [2] | Secretion of PSK by transformed Arabidopsis cultured cells [3] | Cell proliferation of transformed Arabidopsis cultured cells [1] |
| --- | --- | --- | --- | --- |
| [sY]I[sY]TQ [PSK-α, reference compound] | alternated in part | – | – | – |
| [sY]I[sY]T [PSK-β] | – | less than one-tenth | – | – |
| B1 | – | – | could secret the PSK | cell proliferation was enhanced |
| B2 | – | – | could secret the PSK | cell proliferation was enhanced |
